Experiment [1] addresses HLA-A*0201 (human).
Experiment [2] deals with HLA-A*6802 (human). Kind of experiment: inhibition of 125I probe peptide binding to purified HLA.
Experiment [3] addresses HLA-A*0203 (human). The description is as above.
Experiment [4] has as its target HLA-A*0201 (human). This is another data set of the same source.
Experiment [5] has as its target HLA-A*0203 (human).
Experiment [6] addresses HLA-A*0206 (human).
The target of experiment [7] is HLA-A*6802 (human). Kind of experiment: competition with 125I-labeled probe peptide for purified HLA, gel filtration.
In experiment [8] the target is HLA-A*0206 (human). Described as above.
The target in experiment [9] is HLA-A*0201 (human). Described as above.
Experiment [10] concerns the target HLA-A*0203 (human). The description is as above.
Experiment [11] addresses HLA-A*0202 (human). Kind of experiment: inhibition of 125I probe peptide binding to purified HLA, gel filtration. On the technique in general: SEC sorts molecules by how far they enter the pores of the column.
Experiment [12] has as its target HLA-A*0203 (human). The experiment is described as follows: competition with 125I probe peptide on purified HLA, gel filtration.
The target of experiment [13] is HLA-A*0202 (human). The experiment is described as follows: competition with 125I-labelled standard peptide for purified HLA.
The target in experiment [14] is HLA-A*0202 (human).
The target of experiment [15] is HLA-A*0201 (human). Kind of experiment: inhibition of 125I probe peptide binding to purified HLA.
Experiment [16] concerns the target HLA-A*0206 (human). Described as above.

Like-named read-outs stand apart in the source and are kept apart here.

B1: PSA.118 (11-mer MLLRLSEPAEL) (peptide)
peptide: MLLRLSEPAEL
Consider B1, for which the half-maximal inhibitory concentration (IC50) (usually the midpoint of a concentration-inhibition curve) in [1] is at most 200 nM.

B2: PAP.112 (peptide)
peptide: TLMSAMTNL
Molecule B2 came in with a concentration for half-maximal inhibition (IC50) in experiment [1] of at most 200 nM.

B3: PSM.514 (peptide)
peptide: KLGSGNDFEV
As to B3, the concentration for half-maximal inhibition (IC50) in experiment [1] was over 200 nM.

B4: PSM.663 (peptide)
peptide: MMNDQLMFL
In [1], B4 registered an IC50 of at most 200 nM.

B5: Peptide 63.0138 FLLFFWLDRSV (PAP.20) (peptide)
peptide: FLLFFWLDRSV
Regarding B5, the values for the IC50 in experiment [2] and in [3] were 364 nM and 2.8 nM, respectively.

B6: PSM.25 (peptide)
peptide: ALVLAGGFFL
In turn, B6 returned an IC50 in experiment [1] of over 200 nM.

B7: peptide 1418.71, HuK2.191.V11 (peptide)
peptide: KVTEFMLCAGV
For the molecule B7, inhibition in experiment [4] was half-maximal at 56 nM (IC50). In other words, the double-digit nanomolar range.

B8: peptide 1418.59 (HuK2.8.T2) (peptide)
peptide: ITLSVGCTGAV
For B8, the IC50 in experiment [5] was 40 nM; in experiment [6] it was 206 nM.

B9: Peptide 1418.30 (peptide)
peptide: ATFDIESKV
For B9, the IC50 in experiment [7] stood at 258 nM; in [8] it was 82 nM; in [9] it was 238 nM; in [10], 44 nM.

B10: Peptide 63.0186 (PSA.3.V11) (peptide)
peptide: FLTLSVTWIGV
Turning to B10, in [11], the IC50 worked out at 3 nM.

B11: PSM.4 (peptide)
peptide: LLHETDSAV
In the case of B11, in [1], the IC50 was over 200 nM.

B12: PSM.427 (peptide)
peptide: GLLGSTEWA
In experiment [1], B12 yielded an IC50 of over 200 nM.

B13: PSM.469 (peptide)
peptide: LMYSLVHNL
The molecule B13 came in with an IC50 in experiment [1] of at most 200 nM.

B14: PAP.6 (peptide)
peptide: LLLARAASLSL
B14: in experiment [1], the IC50 was at most 200 nM.

B15: Peptide 60.0213 TVSGLQMAV (PAP.292.V9) (peptide)
peptide: TVSGLQMAV
The molecule B15 yielded an IC50 in experiment [12] of 122 nM.

B16: peptide 1419.27, PSA.3.V11 (peptide)
peptide: FLTLSVTWIGV
Consider B16, for which the IC50 in [13] was 3 nM.

B17: peptide 1418.52 (HuK2.170.V10) (peptide)
peptide: SLQCVSLHLV
As to B17, the IC50 in experiment [5] came to 2.8 nM; in [14], 6.3 nM; in experiment [6], 5.2 nM.

B18: Peptide 63.0136 LLLARAASLSL (PAP.6) (peptide)
peptide: LLLARAASLSL
On to B18, for which the IC50 in experiment [15] amounted to 8.1 nM; in experiment [16], 80 nM; in experiment [3] it was 5.3 nM.

Values taken from patent US20040037843A1 (published 2004).
